# In PMC11168103:
# B1: ATTA2 (dsDNA)
# DNA 1: TAGTGTGATTGAATTAAAGGGCAGG
# DNA 2: CCTGCCCTTTAATTCAATCACACTA
# Biological target: PHOX2B-20A (UniProt Q99453 98-314)
# Test: NMR
# Sequence of PHOX2B-20A (Q99453 98-314): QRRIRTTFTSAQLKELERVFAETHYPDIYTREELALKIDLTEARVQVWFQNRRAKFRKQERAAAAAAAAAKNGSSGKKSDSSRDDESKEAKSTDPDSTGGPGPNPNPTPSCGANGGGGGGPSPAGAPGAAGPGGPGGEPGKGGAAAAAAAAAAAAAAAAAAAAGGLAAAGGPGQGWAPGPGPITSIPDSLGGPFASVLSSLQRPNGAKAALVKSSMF
binder,measurement,value
B1,binding result,binds
